Measurements taken from article PMC6999705.

Columns and labels:
RGE-MFG-E8-Ig (mouse) = RGE-MFG-E8-Ig (mouse) (UniProt P21956); experiment: SEC
MFG-E8-Ig (mouse) = MFG-E8-Ig (mouse) (UniProt P21956); experiment: SEC

| stoichiometry N (RGE-MFG-E8-Ig (mouse)) | stoichiometry N (MFG-E8-Ig (mouse)) | Substance |
| --- | --- | --- |
| 2 |  | RGE-MFG-E8-Ig (from UniProt P21956 23-148) (Fc fusion) |
|  | 2 | MFG-E8-Ig (from UniProt P21956 23-148) (Fc fusion) |
